Results: article PMC10505919

Target: Chlamydomonas reinhardtii RabL2, wild type (Chlamydomonas reinhardtii)
Test: ITC

Substance: Chlamydomonas reinhardtii CEP19 residues 1-208 (domain or fragment)
- Kd: 12.7 µM
